These results are taken from article PMC11559006, “Rab6a enables BICD2/dynein-mediated trafficking of human papillomavirus from the trans-Golgi network during virus entry” (mBio, 2024).

For the assay, the target named is T1, HA-tagged constitutively active (CA) Rab6a mutant (Q72L) (UniProt P20340 2-208, Q72L).
T1 construct: Rab6a, amplified from EGFP-Rab6AQ72L (Addgene #49483); the forward primer puts ATG and the HA tag before the codons S-T-G-G (residue 2 onward), the reverse primer ends at the stop codon after ...GGCSC; The vector is called pCMV-FLAG; also called HA-tagged CA Rab6a; GTP-Rab6a; source: HEK293TT, transfected, purified (anti-HA agarose, eluted with HA peptide); not shown: HA, N-terminal, kept
Put plainly: pull-down; 5 µg biotinylated peptide incubated with purified protein (~20 nM FLAG-BICD2 or HA-tagged CA or DN Rab6a) in HN buffer (50 mM HEPES, 150 mM NaCl) with 0.1% Triton, 1 mM DTT, 2 h at 4°C; streptavidin magnetic beads; western blot for HA or FLAG. Particulars: both partners purified.

Ends that are not written are not given here.

B1: biotinylated HPV16 L2 peptide, amino acids 434–461 (peptide)
peptide: SPQYTIIADAGDFYLHPSYYMLRKRRKR
modifications: also: further groups not given here
notes: HPV16 minor capsid protein L2, amino acids 434-461 of full-length HPV16 L2; also called L2 C; peptide 434–461; source: synthetic peptide, bought: GenScript or Promega
Turning to B1, the binding result is “binds”.
